According to patent US20170015742A1 (published 2017):
Changes are numbered by the printed parent chain. Numbers in names are those of the source.

B1: 3E2.1_GS_4G8.5 (PR-1612499) (bispecific antibody, human IgG1, kappa, L234A L235A)
heavy: EVQLVQSGAEVKKPGSSVKVSCKASGYTFTESYMYWVKQAPGQGLELIGRIDPEDGSTDYVEKFKNKATLTADKSTSTAYMELSSLRSEDTAVYFCARFGARSYFYPMDAWGQGTTVTVSSGGGGSGGGGSEIQLVQSGSELKKPGASVKVSCKASGYTFTNYGMYWVRQAPGQGLEYMGWINTETGKPTYADDFKGRFVFSLDTSVSTAYLQISSLKAEDTAVYFCARTNYYYRSYIFYFDYWGQGTMVTVSSASTKGPSVFPLAPSSKSTSGGTAALGCLVKDYFPEPVTVSWNSGALTSGVHTFPAVLQSSGLYSLSSVVTVPSSSLGTQTYICNVNHKPSNTKVDKKVEPKSCDKTHTCPPCPAPEAAGGPSVFLFPPKPKDTLMISRTPEVTCVVVDVSHEDPEVKFNWYVDGVEVHNAKTKPREEQYNSTYRVVSVLTVLHQDWLNGKEYKCKVSNKALPAPIEKTISKAKGQPREPQVYTLPPSREEMTKNQVSLTCLVKGFYPSDIAVEWESNGQPENNYKTTPPVLDSDGSFFLYSKLTVDKSRWQQGNVFSCSVMHEALHNAYTQKSLSLSPGK
light: ETVLTQSPATLSLSPGERATLSCRASESVSTLMHWYQQKPGQQPRLLIYGASNLESGVPARFSGSGSGTDFTLTISSLEPEDFAVYFCQQSWNDPWTFGGGTKVEIKGGSGGGGSGGATQLTQSPSLSASVGDRVTITCRASESVSTHMHWYQQKPGKQPKLLIYGASNLESGVPSRFSGSGSGTDFTLTISSLQPEDFATYFCQQSWNDPFTFGQGTKLEIKRTVAAPSVFIFPPSDEQLKSGTASVVCLLNNFYPREAKVQWKVDNALQSGNSQESVTEQDSKDSTYSLSSTLTLSKADYEKHKVYACEVTHQGLSSPVTKSFNRGEC
notes: DVD-Ig: outer hBFU-3E2.1 (PDGF), inner hBDB-4G8.5 (VEGF), linkers GS-H10 / GS-L10(dR); Human IgG1 L234A, L235A, H435A with kappa light chain
B2: 3E2.1_GS_9E10.1 (PR-1612500) (bispecific antibody, human IgG1, kappa, L234A L235A)
heavy: EVQLVQSGAEVKKPGSSVKVSCKASGYTFTESYMYWVKQAPGQGLELIGRIDPEDGSTDYVEKFKNKATLTADKSTSTAYMELSSLRSEDTAVYFCARFGARSYFYPMDAWGQGTTVTVSSGGGGSGGGGSEIQLVQSGSELKKPGASVKVSCKASGYTFTNYGMYWVKQAPGQGLEYMGWIDTETGRPTYADDFKGRFVFSLDTSVSTAYLQISSLKAEDTAVYFCARWSGDTTGIRGPWFAYWGQGTLVTVSSASTKGPSVFPLAPSSKSTSGGTAALGCLVKDYFPEPVTVSWNSGALTSGVHTFPAVLQSSGLYSLSSVVTVPSSSLGTQTYICNVNHKPSNTKVDKKVEPKSCDKTHTCPPCPAPEAAGGPSVFLFPPKPKDTLMISRTPEVTCVVVDVSHEDPEVKFNWYVDGVEVHNAKTKPREEQYNSTYRVVSVLTVLHQDWLNGKEYKCKVSNKALPAPIEKTISKAKGQPREPQVYTLPPSREEMTKNQVSLTCLVKGFYPSDIAVEWESNGQPENNYKTTPPVLDSDGSFFLYSKLTVDKSRWQQGNVFSCSVMHEALHNAYTQKSLSLSPGK
light: ETVLTQSPATLSLSPGERATLSCRASESVSTLMHWYQQKPGQQPRLLIYGASNLESGVPARFSGSGSGTDFTLTISSLEPEDFAVYFCQQSWNDPWTFGGGTKVEIKGGSGGGGSGGDIRMTQSPSSLSASVGDRVTIECLASEDIYSDLAWYQQKPGKSPKLLIYNANGLQNGVPSRFSGSGSGTDYSLTISSLQPEDVATYFCQQYNYFPGTFGQGTKLEIKRTVAAPSVFIFPPSDEQLKSGTASVVCLLNNFYPREAKVQWKVDNALQSGNSQESVTEQDSKDSTYSLSSTLTLSKADYEKHKVYACEVTHQGLSSPVTKSFNRGEC
notes: DVD-Ig: outer hBFU-3E2.1 (PDGF), inner hBEW-9E10.1 (VEGF), linkers GS-H10 / GS-L10(dR); Human IgG1 L234A, L235A, H435A with kappa light chain
B3: 3E2.1_GS_9E10.6 (PR-1612501) (bispecific antibody, human IgG1, kappa, L234A L235A)
heavy: EVQLVQSGAEVKKPGSSVKVSCKASGYTFTESYMYWVKQAPGQGLELIGRIDPEDGSTDYVEKFKNKATLTADKSTSTAYMELSSLRSEDTAVYFCARFGARSYFYPMDAWGQGTTVTVSSGGGGSGGGGSEVQLVQSGAEVKKPGSSVKVSCKASGYTFTNYGMYWVRQAPGQGLEWMGWIDTETGRPTYADDFKGRFTFTADKSTSTAYMELSSLRSEDTAVYYCARWSGDTTGIRGPWFAYWGQGTLVTVSSASTKGPSVFPLAPSSKSTSGGTAALGCLVKDYFPEPVTVSWNSGALTSGVHTFPAVLQSSGLYSLSSVVTVPSSSLGTQTYICNVNHKPSNTKVDKKVEPKSCDKTHTCPPCPAPEAAGGPSVFLFPPKPKDTLMISRTPEVTCVVVDVSHEDPEVKFNWYVDGVEVHNAKTKPREEQYNSTYRVVSVLTVLHQDWLNGKEYKCKVSNKALPAPIEKTISKAKGQPREPQVYTLPPSREEMTKNQVSLTCLVKGFYPSDIAVEWESNGQPENNYKTTPPVLDSDGSFFLYSKLTVDKSRWQQGNVFSCSVMHEALHNAYTQKSLSLSPGK
light: B2 light with E139T, S189T
notes: DVD-Ig: outer hBFU-3E2.1 (PDGF), inner hBEW-9E10.6 (VEGF), linkers GS-H10 / GS-L10(dR); Human IgG1 L234A, L235A, H435A with kappa light chain
B4: 1E3.4_GS_3E2.1 (PR-1612495) (bispecific antibody, human IgG1, kappa, L234A L235A)
heavy: EIQLVQSGSELKKPGASVKVSCKASGYPFTNSGMYWVKQAPGQGLEYMGWINTEAGKPTYADDFKGRFVFSLDTSVSTAYLQISSLKAEDTAVYFCARWGYISDNSYGWFDYWGQGTLVTVSSGGGGSGGGGSEVQLVQSGAEVKKPGSSVKVSCKASGYTFTESYMYWVKQAPGQGLELIGRIDPEDGSTDYVEKFKNKATLTADKSTSTAYMELSSLRSEDTAVYFCARFGARSYFYPMDAWGQGTTVTVSSASTKGPSVFPLAPSSKSTSGGTAALGCLVKDYFPEPVTVSWNSGALTSGVHTFPAVLQSSGLYSLSSVVTVPSSSLGTQTYICNVNHKPSNTKVDKKVEPKSCDKTHTCPPCPAPEAAGGPSVFLFPPKPKDTLMISRTPEVTCVVVDVSHEDPEVKFNWYVDGVEVHNAKTKPREEQYNSTYRVVSVLTVLHQDWLNGKEYKCKVSNKALPAPIEKTISKAKGQPREPQVYTLPPSREEMTKNQVSLTCLVKGFYPSDIAVEWESNGQPENNYKTTPPVLDSDGSFFLYSKLTVDKSRWQQGNVFSCSVMHEALHNAYTQKSLSLSPGK
light: ATQLTQSPSSLSASVGDRVTISCRASEGVYSYMHWYQQKPGKQPKLLIYKASNLASGVPSRFSGSGSGTDFTLTISSLQPEDFATYFCHQNWNDPLTFGQGTKLEIKGGSGGGGSGGETVLTQSPATLSLSPGERATLSCRASESVSTLMHWYQQKPGQQPRLLIYGASNLESGVPARFSGSGSGTDFTLTISSLEPEDFAVYFCQQSWNDPWTFGGGTKVEIKRTVAAPSVFIFPPSDEQLKSGTASVVCLLNNFYPREAKVQWKVDNALQSGNSQESVTEQDSKDSTYSLSSTLTLSKADYEKHKVYACEVTHQGLSSPVTKSFNRGEC
notes: DVD-Ig: outer hBEW-1E3.4 (VEGF), inner hBFU-3E2.1 (PDGF), linkers GS-H10 / GS-L10(dR); Human IgG1 L234A, L235A, H435A with kappa light chain
B5: CL-33675_GS_4G8.5 (PR-1612496) (bispecific antibody, human IgG1, kappa, L234A L235A)
heavy: EVTLRESGPALVKPTQTLTLTCTFSGFSLSTYGMGVGWIRQPPGKALEWLANIWWDDDKYYNPSLKNRLTISKDTSKNQVVLTMTNMDPVDTATYYCARIESSGPKYSFDYWGQGTMVTVSSGGGGSGGGGSEIQLVQSGSELKKPGASVKVSCKASGYTFTNYGMYWVRQAPGQGLEYMGWINTETGKPTYADDFKGRFVFSLDTSVSTAYLQISSLKAEDTAVYFCARTNYYYRSYIFYFDYWGQGTMVTVSSASTKGPSVFPLAPSSKSTSGGTAALGCLVKDYFPEPVTVSWNSGALTSGVHTFPAVLQSSGLYSLSSVVTVPSSSLGTQTYICNVNHKPSNTKVDKKVEPKSCDKTHTCPPCPAPEAAGGPSVFLFPPKPKDTLMISRTPEVTCVVVDVSHEDPEVKFNWYVDGVEVHNAKTKPREEQYNSTYRVVSVLTVLHQDWLNGKEYKCKVSNKALPAPIEKTISKAKGQPREPQVYTLPPSREEMTKNQVSLTCLVKGFYPSDIAVEWESNGQPENNYKTTPPVLDSDGSFFLYSKLTVDKSRWQQGNVFSCSVMHEALHNAYTQKSLSLSPGK
light: EIVLTQSPGTLSLSPGERATLSCRASSGSIWYSFVSWYQQKPGQAPRLLIYADDQRASGIPDRFSGSGSGTDFTLTISRLEPEDFAVYYCQSYGINIDVVFGGGTKVEIKGGSGGGGSGGATQLTQSPSLSASVGDRVTITCRASESVSTHMHWYQQKPGKQPKLLIYGASNLESGVPSRFSGSGSGTDFTLTISSLQPEDFATYFCQQSWNDPFTFGQGTKLEIKRTVAAPSVFIFPPSDEQLKSGTASVVCLLNNFYPREAKVQWKVDNALQSGNSQESVTEQDSKDSTYSLSSTLTLSKADYEKHKVYACEVTHQGLSSPVTKSFNRGEC
notes: DVD-Ig: outer CL-33675 (PDGF), inner hBDB-4G8.5 (VEGF), linkers GS-H10 / GS-L10(dR); Human IgG1 L234A, L235A, H435A with kappa light chain

biological target: VEGF-A (UniProt P15692-4 27-191, limits assumed); assay: SPR (Biacore), DVD-Ig captured by anti-human Fc, antigen injected
Sequence (P15692 other isoform, or with tags, fused parts or gaps limits assumed): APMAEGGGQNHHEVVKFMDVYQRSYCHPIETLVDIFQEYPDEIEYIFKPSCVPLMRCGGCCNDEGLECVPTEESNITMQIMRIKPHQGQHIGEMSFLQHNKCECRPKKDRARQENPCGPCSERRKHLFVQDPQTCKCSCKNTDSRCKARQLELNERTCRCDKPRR
Procedure: (§1) For example, approximately 9000 RU of goat anti-human Fc specific polyclonal antibody (Thermo Fisher Scientific Inc., Rockford, Ill.) diluted in 10 mM sodium acetate (pH 4.5) is directly immobilized across a CM5 research grade biosensor chip using a standard amine coupling kit according to manufacturer's instructions and procedures at 25 μg/ml. Unreacted moieties on the biosensor surface were blocked with ethanolamine. For kinetic analysis, rate equations derived from the 1:1 Langmuir binding model were fitted simultaneously to multiple antigen injections (using global fit analysis) with the use of Scrubber 2 (BioLogic Software), Biacore Biaevaluation 4.0.1 software or Biacore T100 Evaluation software. Purified antibodies or DVD-Ig molecules were diluted in running buffer for capture across goat anti-human Fc reaction surfaces. Antibodies or DVD-Ig molecules to be captured as a ligand (1 μg/ml) were injected over reaction matrices at a flow rate of 10 μl/minute. During the assay, all measurements were referenced against the capture surface alone (i.e., with no captured antibody or DVD-Ig molecule). […] The equilibrium dissociation constant KD (M) of the reaction between antibodies and the target antigen was then calculated from the kinetic rate constants by the following formula: KD=Koff/Kₒₙ. Binding was recorded as a function of time and kinetic rate constants were calculated.

Kd	kon	Binder
0.17 nM	240000 M⁻¹ s⁻¹	B1
0.019 nM	630000 M⁻¹ s⁻¹	B2
0.041 nM	570000 M⁻¹ s⁻¹	B3
0.0098 nM	5.3e+06 M⁻¹ s⁻¹	B4
0.18 nM	230000 M⁻¹ s⁻¹	B5

biological target: PDGF-BB (UniProt P01127 82-190); assay: as above
Sequence (P01127 82-190): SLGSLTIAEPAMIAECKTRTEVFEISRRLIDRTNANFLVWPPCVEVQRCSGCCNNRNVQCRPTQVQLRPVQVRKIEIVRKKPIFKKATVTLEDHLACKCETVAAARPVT
Procedure: as §1

Kd	kon	Binder
≤ 0.0038 nM	≥ 9e+07 M⁻¹ s⁻¹	B1
≤ 0.0043 nM	≥ 9e+07 M⁻¹ s⁻¹	B2
≤ 0.0053 nM	≥ 9e+07 M⁻¹ s⁻¹	B3
0.012 nM	4.5e+07 M⁻¹ s⁻¹	B4
0.00023 nM	3.8e+07 M⁻¹ s⁻¹	B5
